Experimental data reported in patent US20210261636A1, “NEOANTIGENS EXPRESSED IN MULTIPLE MYELOMA AND THEIR USES” (Janssen Biotech, Inc., priority 2020, published 2021).

How the values were obtained:
CD4+ T cells = assay: Exogenous autologous healthy donor restimulation assay, TNFα and IFNγ production by CD4+ T cells; assay type: cell-based, human; set-up: Frequency (TNFα+ IFNγ+ CD4 T cells): unit not given here; conditions: donor independent, peptide pool 10 μg/mL, healthy donors; for Fold change (CD4+) vs. DMSO: maximum CD4+ T-cell response (TNFα and IFNγ); for Frequency (TNFα+ IFNγ+ CD4 T cells): maximum CD4+ T-cell response
In short: (§1)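 CD1c+ DCs from healthy donor PBMCs pulsed 2 h with 15-mer overlapping neoantigen peptide pools (10 μg/mL), irradiated 50 Gy, then co-cultured 12 days with autologous CD3+ T cells plus IL-15/IL-2. Restimulated day 11 with same pools, overnight with protein inhibitor; intracellular TNFα/IFNγ by flow. Positive: ≥3-fold over DMSO and ≥0.01% double-positive.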

CD8+ T cells = assay: Exogenous autologous healthy donor restimulation assay, TNFα and IFNγ production by CD8+ T cells; assay type: cell-based, human; set-up: Frequency (TNFα+ IFNγ+ CD8 T cells): unit not given here; conditions: for Fold change (CD8+) vs. DMSO: maximum CD8+ T-cell response (TNFα and IFNγ); for Fold change (CD8+) vs. DMSO / Frequency (TNFα+ IFNγ+ CD8 T cells): donor independent, peptide pool 10 μg/mL, healthy donors; for Frequency (TNFα+ IFNγ+ CD8 T cells): maximum CD8+ T-cell response; for Immunogenic (yes/no): positive if CD8+ and/or CD4+ double positive TNFα/IFNγ frequency >=3-fold over DMSO and at least 0.01%
In short: as §1

Molecule | Fold change (CD4+) vs. DMSO (CD4+ T cells) | Frequency (TNFα+ IFNγ+ CD4 T cells) (CD4+ T cells) | Fold change (CD8+) vs. DMSO (CD8+ T cells) | Frequency (TNFα+ IFNγ+ CD8 T cells) (CD8+ T cells) | Immunogenic (yes/no) (CD8+ T cells)
LTALLLLASTPTP [AS18, alternative splicing, FCRLB] | 12.922 | 0.006 | 7.33 | 0.082 | Yes
GGPPFVGPLRGPRAQPSLSGLCGRRTGSRDTIKIPGQT [FUS42, gene fusion RBM42-> ETV2] | 9.54 | 0.11 | 14.72 | 0.027 | Yes
PPLITNVTEKPWKHTRIEMPLARLTRP [FUS51, gene fusion POU2AF1-> COLCA1] | 11.93 | 0.061 | 200 | 0.06 | Yes
VEDEEKKEAGTHFIHLTGTTVSAGVPEEMPATTLRREVF [AS108, alternative splicing, ACIN1] | 179.31 | 1.06 | 1406.07 | 12.5 | Yes
RQREVVDLVSPREPSRDRRAGGGDLAARPTGRASVWLLGVSVCTAVCRVSCCAGVSCFLFTGEEGPGYACSESWNSEGRPKWEAIVERTCDMGPYNGMCLQG (alternative splicing, CTHRC1) RQREVVDLVSPREPSRDRRAGGGDLAARPTGRASVWLLGVSVCTAVCRVSCCAGVSCFLFTGEEGPGYACSESWNSEGRPKWEAIVERTCDMGPYNGMCLQG | 57.613 | 0.072 | 2700 | 0.27 | Yes
MSATTGSQDNPEGKRDPSRKFQEQKALPKRPPLQKNLRNGVGQHYPATLTSRTRNSIKMRHSRTTRARRPPPSPVLPWAASNSQARPETSSLSEKSPEV (alternative splicing, CSAG1) MSATTGSQDNPEGKRDPSRKFQEQKALPKRPPLQKNLRNGVGQHYPATLTSRTRNSIKMRHSRTTRARRPPPSPVLPWAASNSQARPETSSLSEKSPEV | 79.18 | 0.12 | 6327.68 | 11.2 | Yes
GWKICREGIGPVMLTMTSGEWSFSFLEAICGVSREPVPRRRHCIWDTRGGVGLCEASCWRPTSEVG (alternative splicing, STARD5) GWKICREGIGPVMLTMTSGEWSFSFLEAICGVSREPVPRRRHCIWDTRGGVGLCEASCWRPTSEVG | 44.35 | 0.081 | 874.02 | 7.77 | Yes
YESPIFSRDRVNPGALSGSLGQARAACWRTLGSLKPGGEFRAAEQRRAGWVPGAPGFTCSLISSRFPRERFCLRHRSSWRGARRVQCVCPGQTEGLWL (alternative splicing, WNT10A) YESPIFSRDRVNPGALSGSLGQARAACWRTLGSLKPGGEFRAAEQRRAGWVPGAPGFTCSLISSRFPRERFCLRHRSSWRGARRVQCVCPGQTEGLWL | 12.303 | 0.071 | 38.74 | 0.095 | Yes
TQRLPGHKVSNSCMTGLVLTFTKRDPFHKPVTWCGQLADVRQCMFHSIRERAHPLQRALATLNFFFVSFYTALYLTHPLLTLQTWEVVVTVCFSCWELCVPCDVLRRTCRGQR (alternative splicing, BTBD3) TQRLPGHKVSNSCMTGLVLTFTKRDPFHKPVTWCGQLADVRQCMFHSIRERAHPLQRALATLNFFFVSFYTALYLTHPLLTLQTWEVVVTVCFSCWELCVPCDVLRRTCRGQR | 7.26 | 0.025 | 17.3 | 0.77 | Yes
VYPVYQPVVSQAGLGELWQWASGKLRGYCWRRGQWHAYSIQCDPHPVFGEGACDCSETEAHGGCQSPRLESFPGQPPGFRGQRF (gene fusion NDUFB8-> SEC31B) VYPVYQPVVSQAGLGELWQWASGKLRGYCWRRGQWHAYSIQCDPHPVFGEGACDCSETEAHGGCQSPRLESFPGQPPGFRGQRF | 1.94 | 0.011 | 42.81 | 0.064 | Yes
EIEGSCHGGMITMDIKMGSYSCDYLKHSETLSAMVVSCGISFLFLFPRKKIAKLIFKEQVP (alternative splicing, EPHA6) EIEGSCHGGMITMDIKMGSYSCDYLKHSETLSAMVVSCGISFLFLFPRKKIAKLIFKEQVP | 111.44 | 0.57 | 100 | 17 | Yes
RQREVVDLVKKDLVMRAVSLGTQRGDQNGRPSWSGHAIWARIMECAYKGQQECLVETGALGPMAFRVHLGSQVGMDSKEKRGNV (alternative splicing, CTHRC1) RQREVVDLVKKDLVMRAVSLGTQRGDQNGRPSWSGHAIWARIMECAYKGQQECLVETGALGPMAFRVHLGSQVGMDSKEKRGNV | 223.78 | 0.16 | 288.14 | 0.51 | Yes
SLLIGALRITWKREAGRKSFFKCGLRVHMWKGLQFIEITRRNWMLIFQSCSLFGTSQYRSLTKKCQLCFRFKRVSSKGSDITDKREVTH (alternative splicing, ARHGAP42) SLLIGALRITWKREAGRKSFFKCGLRVHMWKGLQFIEITRRNWMLIFQSCSLFGTSQYRSLTKKCQLCFRFKRVSSKGSDITDKREVTH | 15.34 | 0.1 | 1100 | 0.29 | Yes
PPTAAASQVRSPTTATGTAAAGSLRAQTSSRATTESTRATGHSSAICAIVPSRAPITWRCT (gene fusion FOSB-> KLF2) PPTAAASQVRSPTTATGTAAAGSLRAQTSSRATTESTRATGHSSAICAIVPSRAPITWRCT | 6.84 | 0.002 | 37.46 | 0.056 | Yes
